Test results from US20180030151A1 (MOGAM INSTITUTE FOR BIOMEDICAL RESEARCH, published 2018).
Where a chain is given by its changes, count along the chain named. Read-outs that look alike come from different tables or passages of the source.

Experiments:
Assay in all cases: cell-based or functional assay
[1] = biological target: T1, recombinant human TFPI (tissue factor pathway inhibitor) (human, UniProt P10646 29-304)
[2] = biological target: T1, recombinant human TFPI (tissue factor …); remark: listed apart in the source
[3] = biological target: T1, recombinant human TFPI (tissue factor …); remark: listed apart in the source
[4] = biological target: T1, recombinant human TFPI (tissue factor …); remark: listed apart in the source
[5] = biological target: T1, recombinant human TFPI (tissue factor …); remark: listed apart in the source
[6] = biological target: T1, recombinant human TFPI (tissue factor …); remark: listed apart in the source
[7] = biological target: T1, recombinant human TFPI (tissue factor …); remark: listed apart in the source
[8] = biological target: T1, recombinant human TFPI (tissue factor …); remark: listed apart in the source
[9] = biological target: T1, recombinant human TFPI (tissue factor …); remark: listed apart in the source
[10] = biological target: T1, recombinant human TFPI (tissue factor …); remark: listed apart in the source
[11] = biological target: T1, recombinant human TFPI (tissue factor …); remark: listed apart in the source
[12] = biological target: T1, recombinant human TFPI (tissue factor …); remark: listed apart in the source
[13] = biological target: T1, recombinant human TFPI (tissue factor …); remark: listed apart in the source
[14] = biological target: T1, recombinant human TFPI (tissue factor …); remark: listed apart in the source

B1: clone 11 (antibody, V domains shown)
VH: EVQLVESGGGLVKPGGSLRLSCAASGFTFSSYAMNWVRQAPGKGLEWVGTITTGGSYTYYADSVEGRFTISRDNAKNSLYLQMNSLRAEDTAVYYCARQDGNFLMDYWGQGTLVTVSS
VL: DVVMTQTPLSLPVTLGQPASISCKSSPSLLDIDGKTYLNWLQQRPGQSPKRLIYLVSKLDSGVPDRFTGSGSGTDFTLKISRVEAEDVGVYYCWQGTHFPFTFGQGTKVEIKR
effect of inhibiting TFPI, FXa activity assay, Ab 10 nM [1]: ~81% | effect of inhibiting TFPI, FXa activity assay, Ab 20 nM [1]: ~89% | FXa assay % of FXa alone, 2.5 nM Ab, 10 nM TFPI [2]: 7% | FXa assay % of FXa alone, 5 nM Ab, 10 nM TFPI [2]: 29.6% | FXa assay OD, 2.5 nM Ab, 10 nM TFPI [2]: 0.0575 | FXa assay OD, 5 nM Ab, 10 nM TFPI [2]: 0.244 | FXa assay OD, 10 nM Ab, 10 nM TFPI [2]: 0.672 | FXa assay OD, 20 nM Ab, 10 nM TFPI [2]: 0.734

B2: clone 1015 (antibody, V domains shown)
VH: B1 VH with G49S, Y57H
VL: B1 VL with P27Q
effect of inhibiting TFPI, FXa activity assay, Ab 10 nM [1]: ~71% | effect of inhibiting TFPI, FXa activity assay, Ab 20 nM [1]: ~83% | % of Normalized, TF/FVIIa/FX complex assay, Ab 1.56 nM [3]: 15.4% | % of Normalized, TF/FVIIa/FX complex assay, Ab 3.13 nM [3]: 16.1% | % of Normalized, TF/FVIIa/FX complex assay, Ab 6.25 nM [3]: 17.2% | % of Normalized, TF/FVIIa/FX complex assay, Ab 12.5 nM [3]: 19.4% | % of Normalized, TF/FVIIa/FX complex assay, Ab 25 nM [3]: 29.3% | % of Normalized, TF/FVIIa/FX complex assay, Ab 50 nM [3]: 100% | % of Normalized, TF/FVIIa/FX complex assay, Ab 100 nM [3]: 103% | FXa assay % of FXa alone, 2.5 nM Ab, 10 nM TFPI [4]: 6.5% | FXa assay % of FXa alone, 5 nM Ab, 10 nM TFPI [4]: 14% | FXa assay OD, 2.5 nM Ab, 10 nM TFPI [4]: 0.0465 | FXa assay OD, 5 nM Ab, 10 nM TFPI [4]: 0.101 | FXa assay OD, 10 nM Ab, 10 nM TFPI [4]: 0.512 | FXa assay OD, 20 nM Ab, 10 nM TFPI [4]: 0.594 | A405, TF/FVIIa/FX complex assay, Ab 1.56 nM [5]: 0.141 | A405, TF/FVIIa/FX complex assay, Ab 3.13 nM [5]: 0.148 | A405, TF/FVIIa/FX complex assay, Ab 6.25 nM [5]: 0.158 | A405, TF/FVIIa/FX complex assay, Ab 12.5 nM [5]: 0.179 | A405, TF/FVIIa/FX complex assay, Ab 25 nM [5]: 0.269 | A405, TF/FVIIa/FX complex assay, Ab 50 nM [5]: 0.919 | A405, TF/FVIIa/FX complex assay, Ab 100 nM [5]: 0.944

B3: clone 1123 (antibody, V domains shown)
VH: B1 VH with G49S, Y57H, N102H
VL: B1 VL with P27Q
effect of inhibiting TFPI, FXa activity assay, Ab 10 nM [1]: ~69% | effect of inhibiting TFPI, FXa activity assay, Ab 20 nM [1]: ~88% | A405, TF/FVIIa/FX complex assay, Ab 1.56 nM [6]: 0.14 | A405, TF/FVIIa/FX complex assay, Ab 3.13 nM [6]: 0.151 | A405, TF/FVIIa/FX complex assay, Ab 6.25 nM [6]: 0.15 | A405, TF/FVIIa/FX complex assay, Ab 12.5 nM [6]: 0.157 | A405, TF/FVIIa/FX complex assay, Ab 25 nM [6]: 0.272 | A405, TF/FVIIa/FX complex assay, Ab 50 nM [6]: 0.77 | A405, TF/FVIIa/FX complex assay, Ab 100 nM [6]: 0.905 | % of Normalized, TF/FVIIa/FX complex assay, Ab 1.56 nM [7]: 14.7% | % of Normalized, TF/FVIIa/FX complex assay, Ab 3.13 nM [7]: 15.8% | % of Normalized, TF/FVIIa/FX complex assay, Ab 6.25 nM [7]: 15.7% | % of Normalized, TF/FVIIa/FX complex assay, Ab 12.5 nM [7]: 16.4% | % of Normalized, TF/FVIIa/FX complex assay, Ab 25 nM [7]: 28.5% | % of Normalized, TF/FVIIa/FX complex assay, Ab 50 nM [7]: 80.7% | % of Normalized, TF/FVIIa/FX complex assay, Ab 100 nM [7]: 94.8% | FXa assay % of FXa alone, 2.5 nM Ab, 10 nM TFPI [8]: 6.5% | FXa assay % of FXa alone, 5 nM Ab, 10 nM TFPI [8]: 14.7% | FXa assay OD, 2.5 nM Ab, 10 nM TFPI [8]: 0.0315 | FXa assay OD, 5 nM Ab, 10 nM TFPI [8]: 0.071 | FXa assay OD, 10 nM Ab, 10 nM TFPI [8]: 0.332 | FXa assay OD, 20 nM Ab, 10 nM TFPI [8]: 0.424

B4: clone 1214 (antibody, V domains shown)
VH: B1 VH with G49S
VL: B1 VL with P27Q, I32V
effect of inhibiting TFPI, FXa activity assay, Ab 10 nM [1]: ~63% | effect of inhibiting TFPI, FXa activity assay, Ab 20 nM [1]: ~77% | FXa assay % of FXa alone, 2.5 nM Ab, 10 nM TFPI [9]: 6.9% | FXa assay % of FXa alone, 5 nM Ab, 10 nM TFPI [9]: 23.2% | FXa assay OD, 2.5 nM Ab, 10 nM TFPI [9]: 0.06 | FXa assay OD, 5 nM Ab, 10 nM TFPI [9]: 0.202 | FXa assay OD, 10 nM Ab, 10 nM TFPI [9]: 0.545 | FXa assay OD, 20 nM Ab, 10 nM TFPI [9]: 0.672

B5: clone 3024 (antibody, V domains shown)
VH: B1 VH with N35S, G49S, E65Q
VL: B1 VL with P27Q, I32S, F99L
FXa assay % of FXa alone, 2.5 nM Ab, 10 nM TFPI [4]: 3.6% | FXa assay % of FXa alone, 5 nM Ab, 10 nM TFPI [4]: 4.2% | FXa assay % of FXa alone, 10 nM Ab, 10 nM TFPI [4]: 6.6% | FXa assay % of FXa alone, 20 nM Ab, 10 nM TFPI [4]: 32.5% | FXa assay OD, 2.5 nM Ab, 10 nM TFPI [4]: 0.026 | FXa assay OD, 20 nM Ab, 10 nM TFPI [4]: 0.234

B6: clone 3203 (antibody, V domains shown)
VH: B1 VH with N35S, G49S
VL: B1 VL with P27Q, I32L
FXa assay % of FXa alone, 2.5 nM Ab, 10 nM TFPI [10]: 6.2% | FXa assay % of FXa alone, 5 nM Ab, 10 nM TFPI [10]: 13.5% | FXa assay % of FXa alone, 10 nM Ab, 10 nM TFPI [10]: 48.5% | FXa assay % of FXa alone, 20 nM Ab, 10 nM TFPI [10]: 68% | FXa assay OD, 2.5 nM Ab, 10 nM TFPI [10]: 0.0505 | FXa assay OD, 5 nM Ab, 10 nM TFPI [10]: 0.11 | FXa assay OD, 10 nM Ab, 10 nM TFPI [10]: 0.394 | FXa assay OD, 20 nM Ab, 10 nM TFPI [10]: 0.552 | A405, TF/FVIIa/FX complex assay, Ab 1.56 nM [11]: 0.147 | A405, TF/FVIIa/FX complex assay, Ab 3.13 nM [11]: 0.162 | A405, TF/FVIIa/FX complex assay, Ab 6.25 nM [11]: 0.173 | A405, TF/FVIIa/FX complex assay, Ab 12.5 nM [11]: 0.208 | A405, TF/FVIIa/FX complex assay, Ab 25 nM [11]: 0.424 | A405, TF/FVIIa/FX complex assay, Ab 50 nM [11]: 0.934 | A405, TF/FVIIa/FX complex assay, Ab 100 nM [11]: 0.932 | % of Normalized, TF/FVIIa/FX complex assay, Ab 1.56 nM [12]: 16.1% | % of Normalized, TF/FVIIa/FX complex assay, Ab 3.13 nM [12]: 17.7% | % of Normalized, TF/FVIIa/FX complex assay, Ab 6.25 nM [12]: 18.9% | % of Normalized, TF/FVIIa/FX complex assay, Ab 12.5 nM [12]: 22.7% | % of Normalized, TF/FVIIa/FX complex assay, Ab 25 nM [12]: 46.3% | % of Normalized, TF/FVIIa/FX complex assay, Ab 50 nM [12]: 102% | % of Normalized, TF/FVIIa/FX complex assay, Ab 100 nM [12]: 102%

B7: clone 4017 (antibody, V domains shown)
VH: B1 VH with E65Q, N102Y
VL: B1 VL with P27Q
effect of inhibiting TFPI, FXa activity assay, Ab 10 nM [1]: ~70% | effect of inhibiting TFPI, FXa activity assay, Ab 20 nM [1]: ~90% | FXa assay % of FXa alone, 2.5 nM Ab, 10 nM TFPI [13]: 6% | FXa assay % of FXa alone, 5 nM Ab, 10 nM TFPI [13]: 10.6% | FXa assay OD, 2.5 nM Ab, 10 nM TFPI [13]: 0.046 | FXa assay OD, 5 nM Ab, 10 nM TFPI [13]: 0.0815 | FXa assay OD, 10 nM Ab, 10 nM TFPI [13]: 0.54 | FXa assay OD, 20 nM Ab, 10 nM TFPI [13]: 0.696 | % of Normalized, TF/FVIIa/FX complex assay, Ab 1.56 nM [3]: 14.5% | % of Normalized, TF/FVIIa/FX complex assay, Ab 3.13 nM [3]: 15% | % of Normalized, TF/FVIIa/FX complex assay, Ab 6.25 nM [3]: 16.3% | % of Normalized, TF/FVIIa/FX complex assay, Ab 12.5 nM [3]: 19.7% | % of Normalized, TF/FVIIa/FX complex assay, Ab 25 nM [3]: 33.4% | % of Normalized, TF/FVIIa/FX complex assay, Ab 50 nM [3]: 100% | % of Normalized, TF/FVIIa/FX complex assay, Ab 100 nM [3]: 103% | A405, TF/FVIIa/FX complex assay, Ab 1.56 nM [5]: 0.134 | A405, TF/FVIIa/FX complex assay, Ab 3.13 nM [5]: 0.138 | A405, TF/FVIIa/FX complex assay, Ab 6.25 nM [5]: 0.15 | A405, TF/FVIIa/FX complex assay, Ab 12.5 nM [5]: 0.181 | A405, TF/FVIIa/FX complex assay, Ab 25 nM [5]: 0.307 | A405, TF/FVIIa/FX complex assay, Ab 50 nM [5]: 0.919 | A405, TF/FVIIa/FX complex assay, Ab 100 nM [5]: 0.943

B8: clone A24 (antibody, V domains shown)
VH: B1 VH with S30H, G49S, G54R
VL: B1 VL with P27Q, I32V
FXa assay % of FXa alone, 2.5 nM Ab, 10 nM TFPI [14]: 5% | FXa assay % of FXa alone, 20 nM Ab, 10 nM TFPI [14]: 4%

B9: clone A25 (antibody, V domains shown)
VH: B1 VH with G49S, Y57H
VL: B1 VL with P27Q, I32R
FXa assay % of FXa alone, 2.5 nM Ab, 10 nM TFPI [14]: 5.6% | FXa assay % of FXa alone, 10 nM Ab, 10 nM TFPI [14]: 5.3%

B10: clone A63 (antibody, V domains shown)
VH: B1 VH with G49S, E65Q
VL: B1 VL with P27Q, I32V
FXa assay % of FXa alone, 2.5 nM Ab, 10 nM TFPI [14]: 4.8% | FXa assay % of FXa alone, 5 nM Ab, 10 nM TFPI [14]: 5.3% | FXa assay % of FXa alone, 10 nM Ab, 10 nM TFPI [14]: 4.5% | FXa assay % of FXa alone, 20 nM Ab, 10 nM TFPI [14]: 5.6%
